Data published in the DeepSol protein solubility set.

Experiment: soluble on expression in E. coli; label from the status in PepcDB or PDB records

Sequence	soluble on expression in E. coli
MPISEDLKQAIRQRARYICEYCHSPERLSANRFTIDHVIPKSLGGSDAFNNLALACRRCNERRYNFVASIDPQTKTIVAIFNPRQQNWAEHFIWTNRGIIIQGTTTTGRATCIRLDLNDTRYPEEDSIQETRRFWLKTGLHPPIDDPCKNLEHHHHHH	soluble
MRQGFPYARPGQVIGLFGGSFDPPHAGHVHVTREALKMFGLDRVWWLVTPGNPLKAHGPAPLDRRMEAARAMMRHPRVDVTDIEAHLGTRVTADTIAALRRIYPRVRFVWLMGADNLAQLHRWKDWRQIIETVPVGVLARPGDRISARMSPAARAYAPYRIDGQARHLLGRAEAPAWCFVNVPMVDVSSTRIRAAGGWSAAQQGRGQTGTQDQ	not soluble
MDADVIVVGAGLAGLVAAHELTSRGRRVALVDQENAANLGGQAFWSFGGLFLVDSPEQRRLGVKDSLDLAWNDWQGSAGFDRTEDEDSWAVRWARAYVEWAAGEKRSWLAGHGITFLPTVGWAERGDLRAGGHGNSVPRFHIAWGTGTGVVEPFVRYAKQAARDGLLTFHHRHRVDHLVVEDGTARGVRGTVLAPDDSPRGVASSRDTAGEFELAAQAVIVTSGGIGADHDIVRRHWPERLGTPPAEMVTGVPAYVDGRMLGISAEAGARLVNRDRMWHYTEGVRNWDPIWPGHGIRILPGPSSMWFDALGRRLPEPYLPGYDTLGTLRHLRTAEGLAEHGHSWFVLTRKIIEKEFALSGSEQNPDITAKDRAGFLRERVLGKGAPGPVGAFLRHGADFVTAPDLEQLVEKMNRLTDKPLLDAAALRRQIEARDLQLANPYAKDAQVQGIRNARRYIGDRLGRVATPHRLLDPAAGPLIGVKLHILTRKTLGGIQTDLDSRALGADGTPVEGLYAAGEVAGFGGGGVHGYNALEGTFLGGCLFSGRAAGRAAARQTALEHHHHHH	not soluble
MSKVKIELFTSPMCPHCPAAKRVVEEVANEMPDAVEVEYINVMENPQKAMEYGIMAVPTIVINGDVEFIGAPTKEALVEAIKKRL	soluble
MGSDKIHHHHHHMCTVQSNITSHVKKLEEELGVILLNRHNPVTLTNAGHQLHSYAVQMIALHNKAKTIFREGDIDPNETIRLGSMETTAAIRLPQLLNECMQQHPNLPLELQTHPTGYLLNAVQQGEVDCAFVASKYVIPELYSFPVWQEQLVLVCPKQQIDFPDIATLAKTRFIAFRQGCSYRHAIELFLNDHSVPPSQIMEMGSLDGIVSCVELGVGFALLPKSYLNKVADKVSLSCFEINTESAHFTTYLVAQPPETWGSNLKQFICFIEQQFIQKCA	not soluble
MNLDAPRVLVLNAAYEVLGLASIKRAVLLVLGGGAEMVSESGLYLNTPSTRIPVPSVVRLKRMVRRRPGRVPLNRRNVLRRDRYTCQYCGQKGGELTVDHVLPKSRGGKSTWDNLVAACRSCNLRKGDRTPEEAGMRLLRPPKPPRVPLFLLDLKEVPPDWRPFVEGLLGLEHHHHHH	not soluble
PTPPNWNMTSSGLEVKSPGDGILTPGENMELVAAVCSACHSLHMVTQQGLSRQRWDESLDWMIEEQGMEDLSGDDREAILEYLSTYYGG	not soluble
MGSDKIHHHHHHMDNIKQLSRLIIFAEVVQQGSFTGAAKQLGITKSAVSQQIKSLEADMDIRVLNRTTRGVSTTALGQKLLSRCQVLKDQVDLIFKDIVNAEENPRGRFAITLPHSLESNVVMPAIEQLCIEYPGIEPEIIVSDSSLDLVENNLDVAIHAGDLPDSSYRALPIGTITEIFCATPLYLNKNFTPQKLSDLAQLKWISTSWQKQKMSVYNSTNKEKVTIELTQFSKVNTFSTALAMALRHLGLVLLPDNVAKPLIKSGELVHIMEQFTGPVWPVHTLHAYQREKPVHLTRFHQLLCNHFHNL	not soluble
MRIQIGELIRSGVLELGDGYRTKRSELSQFGYAIVRAGDVVEIGVTASDSEFVDQRFDKAIGRKTVRLGDVVITTKGTVGRVAEVSKVPNAGLAVYSPQVCYLRSLQPSILHQRYLKYLLMSPATKYSISTFASSSDMAPYLSLSDFKSMVVDLPSLEDQRAIADVLGALDDKIAENQRVIQLSEQLAMTFYRSTEKSESSLTFADVAGIYGGGTPSTKNPDFWDGEIRWATPTDITALKGPWLCGTARSITEEGLSKSSGSLHPEGSILMTSRATVGHVAFIDAPTTTNQGFINLVPQEAYRYWLYFQLKQRTSEFIAWANGATFLELSRGTFKKLPFQACAETELEKFNSVVAPLMKRVLKAQKENQVLAATRDELLPLLMNGKITVAEAKEAAGDVGVVKQNQQEEGDSSV	not soluble
MVVRVDETTAPLFRQIAALIEDSIVEGSLSSGERAPSTNELAAFHSINPATARKGLQLLVDAGVLEKKRGLGMFVTDNAVELIRGRRRDDFAAAYLAPLVDEAVKLTISKTELHNLIDRVAESRGLYE	soluble
MKSFIKIHKQDNVLLALRYIQKGERLHAYGVSIEVKDDIKRGHKIALQSIKENDSIVKYGFPIGHASQDISIGEHIHVHNTKTNLSDIQLYSYTPRFDENPYSNENRTFKGFRRENGDAGVRNELWIVPTVGCVNGIAEKMLQRFVRETGDIAPFDNVLVLKHQYGCSQLGDDHENTKQILLNAIRHPNAGGVLVLGLGCENNELARMKEALQDVNLKRVKFLESQSVTDEMEAGVALLKEIHEAAKGDKREDIPLSELKIGLKCGGSDGFSGITANPLLGRFSDYLIAQGGSTVLTEVPEMFGAETILMQRAANEEVFHKIVDLINDFKQYFIKHDQPVYENPSPGNKAGGISTLEDKSLGCTQKAGISPVTDVLKYGEVLKTKGLTLLSAPGNDLIASSALAAAGCQIVLFTTGRGTPFGTFVPTVKVATNTELYEAKPHWIDFNAGLLAEDDVHEEYVLREFIHYMIEVASGQLVNHEKNDFKELAIFKSGVTL	not soluble
MSEQSFSNANKGSETLNGSAASFVSHKRFYDDTNFPKGFKRSGDFTSKEAELLELHGHAMKNLAEGKTLPVTADEAQFVEVIKGNIAPSSLLEHIWLKYRKLARGKPFYAVVGTVHLPATKPEVEVEPEAAFDVDVEIEDDVQDEAEPEDKA	soluble
MSVDVKSDFSENESSSTPSPTTVPADVTWPHYPMMPFMQPHPLREKMLQPTFDPQIYGRWSQMGDTGFYGHPDLYPFGLPQLAANGQIPAVEAVDVKPPLSNGSSSSDSGMYPSPSDMMTPFPSTSSGAASSSELSAAAAAAANYQMRAATCYQQSVWPFMDYQQFQGFSWKMPLGNNHGKDRRSSSDGKTLPTGPGTNNVRVRTADKYRMVYSDYQRLELEKEFHTSPFITSDRKSQLSTMLSLTERQIKIWFQNRRAKDRRDKQKIRL	not soluble
SLMDVKCETPNCPFFMSVNTQPLCHECSERRQKNQN	soluble
MALYQRWRCLRLQGLQACRLHTAVVSTPPRWLAERLGLFEELWAAQVKRLASMAQKEPRTIKISLPGGQKIDAVAWNTTPYQLARQISSTLADTAVAAQVNGEPYDLERPLETDSDLRFLTFDSPEGKAVFWHSSTHVLGAAAEQFLGAVLCRGPSTEYGFYHDFFLGKERTIRGSELPVLERICQELTAAARPFRRLEASRDQLRQLFKDNPFKLHLIEEKVTGPTATVYGCGTLVDLCQGPHLRHTGQIGGLKLLSNSSSLWRSSGAPETLQRVSGISFPTTELLRVWEAWREEAELRDHRRIGKEQELFFFHELSPGSCFFLPRGTRVYNALVAFIRAEYAHRGFSEVKTPTLFSTKLWEQSGHWEHYQEDMFAVQPPGSDRPPSSQSDDSTRHITDTLALKPMNCPAHCLMFAHRPRSWRELPLRLADFGALHRAEASGGLGGLTRLRCFQQDDAHIFCTTDQLEAEIQSCLDFLRSVYAVLGFSFRLALSTRPSGFLGDPCLWDQAEQVLKQALKEFGEPWDLNSGDGAFYGPKIDVHLHDALGRPHQCGTIQLDFQLPLRFDLQYKGQAGALERPVLIHRAVLGSVERLLGVLAESCGGKWPLWLSPFQVVVIPVGSEQEEYAKEAQQSLRAAGLVSDLDADSGLTLSRRIRRAQLAHYNFQFVVGQKEQSKRTVNIRTRDNRRLGEWDLPEAVQRLVELQNTRVPNAEEIF	soluble
AIAVIVSRCGTGGSVTEHANEVVMKLEALQRPGGLPLSILLVLAGLTKRGASDLRHPIAEDRQSLSCATVQPSLQDV	soluble
MGLKIGDIVSRKSYGSDILFKVVDIKYEKGRKIVVLKGICYRLEADAPETDLIVQPDSYVREYNARVNRAINEKLKSLNESLMREKTKKKFFRDAAKENNENFPRPGKVLHVDGDSDYLDTCMEEYRKLGMDAVGVYVKEKEQPLKIYNLLKEHKPDILVLTGHDGVIKSEKGYSDITNYRNSKYFVEAVREARRFDGNLDSLVIFAGACQSMFKKIIEAGANFASSPYRVLIHALDPVMVCEKIAFTSINQVISPQDVISKTITGVKGIGGIETRGKYRDGFPREPYNIK	soluble
MGSDKIHHHHHHMISMTQNNVEKWGTYEITLKGKAEGNPFTDVEIKAVFTSEAGDSFEVEGFYDGEDTFKIRFMPNRTGLWKYEVRSDIKDLDGMKGEFLCVDPSEGNHGPVRVCNTYHFCYEDGTPYHPFGTTLYAWVHQREELIQQTLESLRNSPFNKVRMCVFPKYYAYNREEPPMLPMSWREEDGRYQVEFNVKFFQHFERLVKELMDMGIEADVILFHPYDKWGFCSMPEEVDKAYLRYLIARISSYRNVWWSMANEYDLIKPQKDWDGYFHFIVEKDPYNHLRSVHQCFKFYDHTKPWITHASIQWQGSLRSWSGEPEIDIGINLIPKWREMYKKPVIIDECGYEGNIEYGWGNLPPQEMMNRFWEGVTSGGYVTHGETYYSEDEVLWWSKGGRLKGESPKRIAFLRTIIEEAPPFLKPIKLDPMMDWDVHCIGKEGEYYLIYFDINRPVKRTLKLPEGKYRVDLVDCWETEIHSLGIFQGQVVIRLPGKSYVALRIQKMENNDDWIILREDAKL	not soluble
GPGSMNNDKSEFYITGMTAGKLPMNNQQMVGYQRRMKIQVNKLMTEKQMTRMDAAAQGNTNTFEPFARERRRATAHVEQYPNIGHSPSGDDATTPKDVIPMLLIKKQLREFGRGRLRMPFTDTLSANVEKFTTPVGQTQVTGQPEILVTEKKLSAEGI	not soluble
MSLKKILIIVPDGGMLFESAGIADILMQANRLHPEGAREICYQVKLATTQPHQVIHGQSGLNLLADHRLHEIDPREPLDTIMITGRGQNPQEGMAVVDWLRLAAPHARRIVSICGGAMLLAQTGLLDGRRATTHWKLLETMQAEFPQIRVEGGPLYIQDEHIWTSGGVSSGFDLTLALVEEDYGFSLARDIAQDFVMYLRRPGGQLQFSRYNLQQTATQGPINDLLAWLLENLTADLSVDKLAEKVAMSPRNFTRVFTRETGASPARYVAEARLAAARQRLEQTHETLDRIAEQTGFGSSINLRRLFEKQLNLTPGEYRQRFHCRKMAEGHHHHHH	soluble
MSLSRSLDSARSFLERLEARGGREGAVLAGEFSDIQACSAAWKADGVCSTVAGSRPENVRKNRYKDVLPYDQTRVILSLLQEEGHSDYINGNFIRGVDGSLAYIATQGPLPHTLLDFWRLVWEFGVKVILMACREIENGRKRCERYWAQEQEPLQTGLFCITLIKEKWLNEDIMLRTLKVTFQKESRSVYQLQYMSWPDRGVPSSPDHMLAMVEEARRLQGSGPEPLCVHCSAGCGRTGVLCTVDYVRQLLLTQMIPPDFSLFDVVLKMRKQRPAAVQTEEQYRFLYHTVAQMFCSTLQNASEGHHHHHH	soluble
